Measured values reported in patent US20020086390A1.

Biological target: PAK I of frog (Lepidobatrachus laevis) oocytes, zygotes and embryos (frog (Lepidobatrachus laevis))
Test: cell-based or functional assay

Work on “GST-Cdc42Hs preloaded with GTPγS (from UniProt P60953 1-191)” yielded a degree of activation of inactive PAK I in DEAE-cellulose fractions (H4 phosphorylation) of 6 to 7 fold.
